Source: PMC4552671

Molecular target: Urokinase plasminogen activator surface receptor (uPAR) on metastatic KHOS osteosarcoma cells (human (endogenous in KHOS)) (UniProt Q03405)
Sequence of UniProt Q03405 (Q03405 other isoform, or with tags, fused parts or gaps): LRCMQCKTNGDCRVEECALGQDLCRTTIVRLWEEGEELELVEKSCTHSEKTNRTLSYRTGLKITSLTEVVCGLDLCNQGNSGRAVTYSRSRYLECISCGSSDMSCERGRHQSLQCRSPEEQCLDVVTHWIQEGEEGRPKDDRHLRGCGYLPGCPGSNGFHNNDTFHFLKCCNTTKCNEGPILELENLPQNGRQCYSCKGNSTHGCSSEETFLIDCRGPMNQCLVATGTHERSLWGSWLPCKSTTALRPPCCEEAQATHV

recombinant human urokinase plasminogen activator (rh-uPA), high molecular weight form
increase in migration of metastatic KHOS cells over basal level (Transwell, 24 h) with 0.5 and 1.0 ug/mL rh-uPA: 166%
